From the supplement of paper PMC9170038

System: MS2 coat protein
Experiment: apparent KD of MS2 coat protein; higher = weaker reporter binding
Conditions: Eterna round: R107
Procedure, shortened: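 SNAP-549-labelled MS2 coat protein was titrated onto designed RNA switches that had been transcribed on-chip from Illumina sequencing clusters. Amounts doubled from 0.7 or 1.5 nM to 3 µM in 100 mM Tris-HCl pH 7.5, 80 mM KCl, 4 mM MgCl2, with constant ligand or without. Apparent KD is the median per design of normalised cluster binding-curve fits.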

[1] = input ligand: theophylline 20 uM
[2] = input ligand: tryptophan 2.4 mM
[3] = input ligand: theophylline 2 mM

Row | Sequence | apparent KD of MS2 coat protein (input ligand: arginine 13.2 mM) [nM] | apparent KD of MS2 coat protein [1] [nM] | apparent KD of MS2 coat protein [2] [nM] | apparent KD of MS2 coat protein [3] [nM] | apparent KD of MS2 coat protein (input ligand: none) [nM]
1 | AGCCUAUUACAUGAGGAUCACCCAUGUGAUACCAGUCAGGAAACUGACCCUUGGCAGCGCAUGAGGAUCACCCAUGCGCUAGGCA [Omei Theo A Exc A v5] | 9.15 | 12.3 | 10 |  | 
2 | GUUGGAUACUCGGCCGCCACUGAGAGAGUCAUGUGAACAUGAGGAUCACCCAUGUAAUAUAUAUACAGGACCGGGAGUGUUGUAA [4.I] | 20.3 | 43.7 |  | 32.5 | 
3 | GGAUCCAUCCGAAGGAGCGUCGGAAAUGGGUAAACAUGAGGAUCACCCAUGUAAAGGGAACGGCAGGUAGGUCGCGGAUGGAUCC [#25 Same State - Arginine B] | 132 | 167 | 195 | 157 | 99.1
4 | CCUUACGUUGGGCAGCCAGUUCGAAGUGAUACCAGUCACAAAAGUGACCCUUGGCAGCACCGCACAUGAGGAUCACCCAUGUCUA [SSThA NP+V+V2 #8 Same Structure] | 36.4 | 55.1 | 62.8 | 63.3 | 34.8
5 | AGCUACUCGUUCCUCAUGUACGAGUGGCAACGAGGACCGGUACGGCCGCCACUCGAAUAAACAUGAGGAUCACCCAUGUACAAAU [T''-M-T'-T-MS2 - Design 8] | 42.9 | 168 |  | 179 | 
6 | UACAUGAGGAUCACCCAUGUCGGCAGGGAAGGAGCGGCAAUAAAGCCAGGUAGGUCGCCCAUUAGUAUUUAUAAAUAAAUAUCCA [Same State - Arginine A] | 53.6 | 74.4 | 66.9 | 75.9 | 90
7 | GGGCGAGUGGCGCGGCGUGCUCCGCUCCGUCGAGGACCGGUACGGCCGCCACUCGACAUGAGGAUCACCCAUGUGCGAGCUCGCG [#1 Exclusion - Tryptophan A Attempt #12 (HarryS)] | 24.7 | 71.7 | 39.8 | 101 | 52.5
8 | AUAAGUAAGUUUUCGUGUUUUAUUACAGAUACCAGACUAUACGUUGUCCCUUGGCAGCUGGAUUACAUGAGGAUCACCCAUGUUG [#25 Exclusion-TheophyllineA] | 19 | 33.9 | 23.9 |  | 
9 | UAAAACAUGAGGAUCACCCAUGUAAAUGAUACCAGAGUGAUGAUCCUCCCUUGGCAGCAUAACGCUGAUUGAUUACAAUCAGCGA [Mat - Same State Theophlline A - Mod of Eli - D22] | 55.2 | 160 | 58.3 |  | 
10 | UCACAUGAGGAUCACCCAUGUACAACUGAAGGAGCGAGACAAAACUCAGGUAGGUCGCAGAAUAAACAAUAGCAUACGACAUGGG [Exclusion Arginine A GF 19] | 44.6 | 43.1 | 27.7 | 26.3 | 31
11 | GAUAUGGAAACAUGUCAGAUCCUUACCGGUCGAGGACCGGUACGGCCGCCACUCGAAAAUAAUAAACAUGAGGAUCACCCAUGUA [Ex Tryptophan A 16] | 17 | 18.8 |  | 17.5 | 
12 | AUACAUGAGGAUCACCCAUGUUAUAGUGAAGGAGCGACAUUUAUGUCAGGUAGGUCGCACUAUUGUUUAAUGAUUCUUGGAUCUU [JR_ExcArginiA_Sub017] | 16.9 | 22.4 | 18.5 | 15.1 | 15.2
13 | UGUAUGGACUGAAGGAGCGGGAAAUAAACCUGAGGAACACCCAGGUAAUAGGCGAAAGCCACCCAGGUAGGUCGCAGUCCAUACU | 17.2 | 14.8 | 18.8 | 14.4 | 13.6
14 | GUGACUUACGGGCGCCAUUUGUAAUAGGAAGGAGCGGCGAAAUAGCCAGGUAGGUCGCCUAUACAUGAGGAUCACCCAUGUCACC [Esatbileor] | 46.9 | 105 | 77.8 | 105 | 91.9
15 | UGCCGAGACGUGGAUUACCCAUGUACCGAAGGAGCGCCCGAAAGGGCAGGUAGGUCGCGGAGGACAUGAGGAUCACCCAUGUCGA | 83.8 | 127 | 47 | 166 | 34.5
16 | UAUACAUGAGGAUCACCCAUGUGCCAUGAUACCAGACAUGAAAAUGUCCCUUGGCAGCAUGGGAAAUGUAUAGCGGGAAACCCGA [Slatina] | 52.7 | 201 | 60.8 |  | 
17 | UGACAUUGCUCAGAUACCAGACAUGAGGAUCACCCAUGUACCAAGAGUACAAAUUAAAAUGUCCCUUGGCAGCUGAGCAAUGUCU [TheoBX 7 #MS2Left #Theo2] | 25.4 | 37.8 | 19.3 |  | 
18 | GGAUAGGACAGAAGGAGCGACAUGGCGACGAAAGUCGGACCUUCACAUGAGGAUCACCCAUGUCAGGUAGGUCGCUGUCCUAUCG [ArgXB 6 #MS2Gate #StaticStem] | 38 | 55.2 | 46.1 | 52.4 | 48.4

Row | Sequence | apparent KD of MS2 coat protein (input ligand: arginine 13.2 mM) [nM] | apparent KD of MS2 coat protein [1] [nM] | apparent KD of MS2 coat protein [2] [nM] | apparent KD of MS2 coat protein [3] [nM] | apparent KD of MS2 coat protein (input ligand: none) [nM]
19 | GGUGGAGGCGUGGGACUUGUCUGAACGGAUACCAGCCACAUCACGGGCCCUUGGCAGCUGUACAUGAGGAUCACCCAUGUCGGUC [Atestevete] | 33.6 | 45.2 | 34.8 |  | 
20 | UUAUAAGUACCGGUCCUCAGAUCCUCAUGACGAGGACCGGUACGGCCGCCACUCGAAACAUGAGGAUCACCCAUGUAAUAAUACU [Brourdmod08] | 21 | 34.5 |  | 33.1 | 
21 | AUUUUCGUAGGUUAAAGUUUAGAAACUGAAGGAGCGUGGUAUUACACAGGUAGGUCGCAGAUUUUACAUGAGGAUCACCCAUGUU [JR_ExcArginiA_Sub011] | 14.9 | 25.4 | 17.7 | 20.6 | 22
22 | CGAAUAUAGACGGCCGCCACUCUACAAACAUGAGGAUCACCCAUGUUCACAUAGAGGAAACUCAUGAGGACCGGGUCAUAGGCUU [#20 Same State - Tryptophan B] | 23.5 | 32.5 |  | 27.4 | 
23 | AUGUCACAUGAGGAUCACCCAUGUAUGGAUACCAGUUUAGUGAAUAACCCUUGGCAGCCAAGGAUGCGACAGAAAUCCGGAAAAC [theeternabot_sameState_MS2_Theo_A_22] | 19 | 26.6 | 20.5 |  | 
24 | GUAGCUAUCGCGGCCGCCACUAAACCGGAAACGGAACAGGAGGAUCACCCUUGUGGCGAAAGCCAUAGGACCGGGCGAUAGCUAC [TryBS - Double Magnet system] | 224 | 457 | 46.3 | 735 | 
25 | AGACAUGAGGAUCACCCAUGUAGUACGGAUACCAGAUCCAGAUGUAUCCCUUGGCAGCUGUGGUACAGCGUUACAUCGCUCGUAG [Exclusion - Theophylline A (Freestyle 21)] | 10.4 | 18.4 | 16.2 | 16.6 | 13.3
26 | UGUAUGUGAUCUGAUACCAGUCCAACUGGUAAAACAUGAGGAUCACCCAUGUAAAAUUGGGACCCUUGGCAGCAGAUCGCAUACU [ThBS 2] | 259 | 418 | 615 |  | 
27 | AGAGUCAGACAAAAGUCUGGCUCAACCGAAGGAGCGUCCGAAAGGACAGGUAGGUCGCGGUUACCUGAGGAUCACCCGGGUUCCU [ArgAS 9 #OpenEnded #AlternativeMS2] | 100 | 110 | 659 | 1040 | 65
28 | AUACAUGAGGAUCACCCAUGUCACACAGAAGGAGCGGCUGUAGAGCCAGGUAGGUCGCUGUACUCAAAAUACUUCAUACUCAUGU [JR_Nu_ExcArginiA_Sub033] | 34.9 | 34.7 | 27.5 | 37 | 33
29 | UGUAUGUGAACUGAUACCAGACCUCAAUCUUGAGGAUCACCCAAGGAGGACGAAAGUCCGGUCCCUUGGCAGCAGUUCACAUACU [ThBS - Unstable 2] | 162 | 737 | 1390 | 40.5 | 664
30 | AGAUAACAUGGUUUAAUAAGAUAAACUGAUACCAGUGUAUAUAAUCACCCUUGGCAGCAGCAACAUGAGGAUCACCCAUGUAAUA [JR_SSTheophyA_Sub014] | 14.9 | 19.6 | 20.6 |  | 
31 | UAAACUACACAUGAGGAUCACCCAUGUGGCCGAGGACCGGUACGGCCGCCACUCGUGUGUUAAUAAAAGAACCGCAAAGUUCUUU [Raesonisso] | 74.2 | 410 |  | 678 | 
32 | ACGAUAGGACCUGAGGAACACCCAGGUGAUACCAGCCUGGAAACAGGCCCUUGGCAGCACCAAUACUCCAAUAACCUAUCGAAUA [TheoAX 12 #MicroSwitchBubble #AlternativeMS2] | 141 | 521 | 518 | 366 | 547
33 | UAAUGCAUGACGGCCGCCACUAGAACAUGAGGAUCACCCAUGUACGGCGGCCGUCAUGGGUGGACUAGGACCGGGUCAUGCAUAU [(Trp1)-(Ms2)-(T)'-(M)'-(Trp2)_Design5] | 8.2 | 11.6 |  | 10.5 | 
34 | UGUGUAAUUGUCUGGUAGAAUUAUUUGUUUCGAGGACCGGUACGGCCGCCACUCGAUAUUUACAUGAGGAUCACCCAUGUUAGCU [JR_SSTryptoA_Sub004] | 13.9 | 14.3 | 11.6 | 14.9 | 14
35 | AGAGUUAGACAAAAGUCUAGCUCACCAGAAGGAGCGUCCGAAAGGACAGGUAGGUCGCUGGUACGUGAGGAUCACCCACGUUCCU [ArgAS 18 #OpenEnded #AlternativeMS2] | 21.6 | 26.3 | 23.1 | 28.4 | 24.6
